Test results from US20170312332A1 (Stanford University, published 2017).
Ends that are not written are not given here.

Target: recombinant Drp1 (GST-Drp1) (human, UniProt O00429 1-736)
Experiment: cell-based or functional assay

Chain of recombinant Drp1 (GST-Drp1) (O00429 other isoform, or with tags, fused parts or gaps): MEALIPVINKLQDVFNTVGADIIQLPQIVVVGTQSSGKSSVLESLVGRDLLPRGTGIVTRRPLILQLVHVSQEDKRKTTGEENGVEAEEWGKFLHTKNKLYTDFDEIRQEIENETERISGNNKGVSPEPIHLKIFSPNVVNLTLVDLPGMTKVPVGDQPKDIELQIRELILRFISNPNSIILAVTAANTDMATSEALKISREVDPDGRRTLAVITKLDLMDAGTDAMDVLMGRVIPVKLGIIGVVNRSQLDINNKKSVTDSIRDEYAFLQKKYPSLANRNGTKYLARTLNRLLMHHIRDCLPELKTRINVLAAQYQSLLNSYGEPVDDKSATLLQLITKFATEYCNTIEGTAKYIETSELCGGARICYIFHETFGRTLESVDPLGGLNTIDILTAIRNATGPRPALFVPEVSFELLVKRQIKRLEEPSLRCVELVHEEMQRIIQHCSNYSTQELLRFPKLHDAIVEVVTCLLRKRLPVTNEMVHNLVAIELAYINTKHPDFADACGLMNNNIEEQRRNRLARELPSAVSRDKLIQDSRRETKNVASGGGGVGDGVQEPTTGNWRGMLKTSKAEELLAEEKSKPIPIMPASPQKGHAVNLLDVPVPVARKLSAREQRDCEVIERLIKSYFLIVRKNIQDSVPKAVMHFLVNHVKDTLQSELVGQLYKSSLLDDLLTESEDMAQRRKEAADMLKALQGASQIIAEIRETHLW

B1: P109 (peptide)
peptide: RRRQRRKKRGYGGKLSAREQRD-NH2
- GTPase activity of recombinant Drp1 (in vitro GTPase assay kit): 40 % inhibition
